{
  "source": "paper PMC6168687",
  "about": "“The C‐terminal segment of collagenase in Grimontia hollisae binds collagen to enhance collagenolysis” (FEBS Open Bio, 2018)",
  "binders": {"B1": {"name": "recombinant C‐terminal segment (aa 616–767) including the PPC domain of Grimontia hollisae strain 1706B collagenase (domain or fragment)", "chain": "TEALAKGDSGAGNGEGTGSGNEGGGESGGNTGLPENCAVLPKISDGRLALDEAACLADTASASDVLWFSIPAVSEYQTIAITAGNGTGDLTLEYSNLNWPDGTNVQASSANMGNSECIILEHQANYWGYLKVSGSFENAALLVEAGSNQCRQ", "notes": "15.4 kDa; The forward primer carries the enterokinase site (DDDDK) just before residue T616, so the cleaved His-tag was probably N-terminal (surmised); QTOF-MS mass 15 445.01 Da fits two intrachain disulfide bonds; also called G. hollisae"}},
  "molecular_target": "T1, insoluble type I collagen fibers (UniProt P02453 162-1217; P02465 80-1117)",
  "T1 construct": "type I collagen, alpha-1(I) chain; type I collagen, alpha-2(I) chain; Triple-helical, insoluble fibres; also called insoluble collagen fibers; native collagen; source: bought: Sigma‐Aldrich",
  "T1 sequence (P02453 162-1217, chain 1 of 2)": "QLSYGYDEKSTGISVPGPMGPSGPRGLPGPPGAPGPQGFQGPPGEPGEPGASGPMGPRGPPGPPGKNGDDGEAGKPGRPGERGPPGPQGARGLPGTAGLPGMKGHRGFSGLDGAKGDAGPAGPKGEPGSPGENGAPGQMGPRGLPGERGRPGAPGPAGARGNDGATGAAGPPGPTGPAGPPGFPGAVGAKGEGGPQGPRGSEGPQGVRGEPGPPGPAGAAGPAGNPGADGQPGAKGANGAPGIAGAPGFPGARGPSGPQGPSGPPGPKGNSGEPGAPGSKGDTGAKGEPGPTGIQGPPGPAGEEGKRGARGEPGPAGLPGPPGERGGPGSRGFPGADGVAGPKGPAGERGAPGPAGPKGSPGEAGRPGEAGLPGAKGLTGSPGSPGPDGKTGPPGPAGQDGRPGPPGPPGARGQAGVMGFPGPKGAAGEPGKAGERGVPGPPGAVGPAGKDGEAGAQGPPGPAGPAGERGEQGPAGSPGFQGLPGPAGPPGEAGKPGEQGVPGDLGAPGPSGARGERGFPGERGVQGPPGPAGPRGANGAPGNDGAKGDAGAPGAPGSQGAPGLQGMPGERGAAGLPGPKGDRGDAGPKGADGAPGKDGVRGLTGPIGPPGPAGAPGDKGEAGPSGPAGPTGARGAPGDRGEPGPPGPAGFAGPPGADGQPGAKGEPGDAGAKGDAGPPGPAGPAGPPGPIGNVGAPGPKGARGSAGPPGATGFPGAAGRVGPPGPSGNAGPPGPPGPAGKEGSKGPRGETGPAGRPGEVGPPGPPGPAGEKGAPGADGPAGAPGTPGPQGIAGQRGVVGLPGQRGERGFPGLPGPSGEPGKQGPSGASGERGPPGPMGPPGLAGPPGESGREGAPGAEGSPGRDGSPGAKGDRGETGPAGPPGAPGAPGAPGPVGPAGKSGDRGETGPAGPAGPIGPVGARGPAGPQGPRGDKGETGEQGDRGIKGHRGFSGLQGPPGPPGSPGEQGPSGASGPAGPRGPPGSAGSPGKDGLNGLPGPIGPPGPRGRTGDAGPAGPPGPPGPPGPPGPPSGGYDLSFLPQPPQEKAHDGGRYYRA",
  "T1 sequence (P02465 80-1117, chain 2 of 2)": "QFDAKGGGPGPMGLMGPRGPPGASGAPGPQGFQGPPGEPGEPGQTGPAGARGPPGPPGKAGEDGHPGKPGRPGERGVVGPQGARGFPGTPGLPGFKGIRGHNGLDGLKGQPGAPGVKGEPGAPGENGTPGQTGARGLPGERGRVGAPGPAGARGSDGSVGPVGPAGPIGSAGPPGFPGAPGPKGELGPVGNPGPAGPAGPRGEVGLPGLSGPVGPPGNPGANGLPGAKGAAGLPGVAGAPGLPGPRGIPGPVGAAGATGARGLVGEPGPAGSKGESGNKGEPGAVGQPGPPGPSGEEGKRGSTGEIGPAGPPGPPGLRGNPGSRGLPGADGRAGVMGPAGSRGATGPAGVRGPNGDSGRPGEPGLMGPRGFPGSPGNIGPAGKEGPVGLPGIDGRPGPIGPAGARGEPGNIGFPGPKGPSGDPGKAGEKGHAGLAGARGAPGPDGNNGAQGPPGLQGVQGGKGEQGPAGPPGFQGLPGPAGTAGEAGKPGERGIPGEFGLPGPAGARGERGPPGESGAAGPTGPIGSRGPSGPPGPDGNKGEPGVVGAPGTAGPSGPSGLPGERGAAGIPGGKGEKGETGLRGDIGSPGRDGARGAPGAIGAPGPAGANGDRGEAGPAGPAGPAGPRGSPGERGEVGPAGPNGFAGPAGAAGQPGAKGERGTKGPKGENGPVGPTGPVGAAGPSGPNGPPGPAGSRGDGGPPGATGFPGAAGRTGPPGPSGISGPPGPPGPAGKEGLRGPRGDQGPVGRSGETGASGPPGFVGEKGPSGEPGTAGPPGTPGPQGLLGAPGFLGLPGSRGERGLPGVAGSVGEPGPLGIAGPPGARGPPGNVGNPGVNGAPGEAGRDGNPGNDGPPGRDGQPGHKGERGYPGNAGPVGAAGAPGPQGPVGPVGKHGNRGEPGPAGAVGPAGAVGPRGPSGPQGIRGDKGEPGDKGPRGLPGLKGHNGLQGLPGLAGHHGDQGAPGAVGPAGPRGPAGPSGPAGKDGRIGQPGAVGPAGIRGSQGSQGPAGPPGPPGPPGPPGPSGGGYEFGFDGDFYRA",
  "assay": "collagen-binding assay with Scatchard analysis; 2.5 mg insoluble type I collagen fibers in 50 μL binding buffer (50 mM Tris/HCl, 0.2 M NaCl, 5 mM CaCl2, pH 7.5) with 0.1–2.0 mg/mL C‐terminal segment and 0.05 mg/mL BSA; unbound protein in the filtrate by SDS/PAGE densitometry; triplicate; least‐squares fit",
  "details": "both partners purified",
  "data": [
    {"binder": "B1", "values": [
      {"measurement": "Kd", "result": 27.2, "unit": "µM"}
    ]}
  ]
}
